Series [1] deals with the molecule itself. The series is described as follows: cross-linking.
Series [2] concerns the molecule itself. Put plainly: crystal structure.

B1: batCOV5-M, M protein of Pipistrellus bat coronavirus HKU5, affinity- and SEC-purified (cross-linking, MST) (natural protein)
chain: MASSNVTLSNDEVLRLVKDWNFTWSVVFLLITIVLQYGYPSRSMFVYVIKMFVLWLLWPASMALSIFCAVYPIDLASQIISGILAATSCAMWISYFVQSIRLFMRTGSWWSFNPESNCLLNVPIGGTTVVRPLVEDSTSVTAVVTDGYLKMAGMHFGACDFQRLPSEVTVAKPNVLIALKMIKRQAYGTNSGVAIYHRYKAGNYRRPPIIQDQELALLRA
In general, stoichiometry N refers to the number of molecules, sites or subunits per partner or assembly. Consider B1, for which the “stoichiometry N” value in series [1] is at least 2.

B2: batCOV5-MCTD-sfGFP, carboxy-terminal domain of batCOV5-M between the two halves of a split superfold (domain or fragment)
chain: ESNCLLNVPIGGTTVVRPLVEDSTSVTAVVTDGYLKMAGMHFGACDFQRLPSEVTVAKPNVLIALKMIKRQAYGTNSGVAIYHRYKAGN
As to B2, the “stoichiometry N” value in series [2] was determined as 4.

(Values after publication PMC9982069 (PNAS Nexus, 2023).)
